# Test results taken from paper doi:10.1101/2020.10.22.351056 (bioRxiv, 2020).
# B1: SARS-CoV spike protein S1+S2, His-tagged (domain or fragment)
# chain: not shown
# Molecular target: Fc-conjugated human angiotensin converting enzyme 2 (ACE2-Fc) (human, UniProt Q9BYF1)
# Experiment: ELISA
# Chain of Fc-conjugated human angiotensin converting enzyme 2 (ACE2-Fc) (Q9BYF1 18-740): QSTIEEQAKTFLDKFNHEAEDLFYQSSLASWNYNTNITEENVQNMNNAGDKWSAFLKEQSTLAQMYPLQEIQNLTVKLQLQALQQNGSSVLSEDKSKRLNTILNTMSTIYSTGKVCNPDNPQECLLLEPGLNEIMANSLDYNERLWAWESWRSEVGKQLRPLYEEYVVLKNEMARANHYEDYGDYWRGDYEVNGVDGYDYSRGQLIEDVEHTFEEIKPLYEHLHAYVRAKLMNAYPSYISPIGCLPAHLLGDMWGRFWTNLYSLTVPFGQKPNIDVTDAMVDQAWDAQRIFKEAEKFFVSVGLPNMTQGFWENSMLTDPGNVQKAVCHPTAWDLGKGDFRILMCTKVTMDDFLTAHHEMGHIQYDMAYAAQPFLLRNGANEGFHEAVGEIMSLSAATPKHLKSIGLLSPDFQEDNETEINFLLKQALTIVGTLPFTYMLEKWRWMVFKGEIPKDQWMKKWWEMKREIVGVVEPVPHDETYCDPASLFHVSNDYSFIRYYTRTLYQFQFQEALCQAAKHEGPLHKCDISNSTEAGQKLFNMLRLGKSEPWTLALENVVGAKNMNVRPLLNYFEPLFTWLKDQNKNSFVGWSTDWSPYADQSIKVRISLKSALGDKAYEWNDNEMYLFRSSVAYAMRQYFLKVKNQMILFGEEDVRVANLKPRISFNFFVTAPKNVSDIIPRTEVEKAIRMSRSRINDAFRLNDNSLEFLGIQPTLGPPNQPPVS
binder,measurement,value
B1,EC50,13.9 nM
